In data set [1] the target is mCherry-tagged zebrafish TBK1 protein (zebrafish). Kind of data set: MST; Monolith NT.115; mCherry-tagged TBK1 as the fluorescent protein, unlabeled SVCV-P or IRF3 at 16 concentrations, protein storage buffer, room temperature 10 min, 40% LED, medium MST power.
In data set [2] the target is purified recombinant zebrafish IRF3 (His-tagged) (zebrafish). Kind of data set: MST; Monolith NT.115; homotypic titration (SVCV-P with SVCV-P, IRF3 with IRF3), labeled protein with unlabeled ligand at 16 concentrations, room temperature; which label was used is not told.
The target in data set [3] is T1, mCherry-tagged zebrafish TBK1 protein (zebrafish, UniProt A0ACM8QAS8 1-727).
T1 construct: also called mCherry-TBK1; pFastBac1-mCherry-His-TBK1; source: Sf9 (baculovirus), purified (Ni-NTA)
T1 sequence: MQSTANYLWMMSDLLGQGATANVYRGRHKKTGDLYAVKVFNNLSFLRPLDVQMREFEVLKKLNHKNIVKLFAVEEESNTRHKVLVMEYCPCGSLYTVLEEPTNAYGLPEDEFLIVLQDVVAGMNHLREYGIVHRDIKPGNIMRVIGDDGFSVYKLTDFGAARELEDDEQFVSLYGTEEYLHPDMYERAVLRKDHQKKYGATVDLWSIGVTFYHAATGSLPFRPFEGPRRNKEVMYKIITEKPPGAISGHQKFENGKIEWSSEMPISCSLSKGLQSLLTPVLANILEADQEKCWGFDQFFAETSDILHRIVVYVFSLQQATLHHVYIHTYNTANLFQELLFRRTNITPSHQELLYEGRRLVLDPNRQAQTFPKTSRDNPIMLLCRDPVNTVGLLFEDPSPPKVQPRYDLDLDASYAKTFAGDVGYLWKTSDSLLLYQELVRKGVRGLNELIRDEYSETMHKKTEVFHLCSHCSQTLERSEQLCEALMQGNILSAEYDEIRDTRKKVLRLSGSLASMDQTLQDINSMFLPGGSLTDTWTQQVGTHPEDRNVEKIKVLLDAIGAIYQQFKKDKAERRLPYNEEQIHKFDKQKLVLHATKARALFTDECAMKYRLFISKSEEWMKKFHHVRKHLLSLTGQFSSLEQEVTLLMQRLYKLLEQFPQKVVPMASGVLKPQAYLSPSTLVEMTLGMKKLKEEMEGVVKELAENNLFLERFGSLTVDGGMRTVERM
Kind of data set: MST; Monolith NT.115; mCherry-tagged TBK1 as the fluorescent protein, unlabeled SVCV-P or IRF3 at 16 concentrations, protein storage buffer, room temperature 10 min, 40% LED, medium MST power. The note with it: both partners purified.

Data set [4] concerns the molecule itself. Kind of data set: MST; Monolith NT.115; homotypic titration (SVCV-P with SVCV-P, IRF3 with IRF3), labeled protein with unlabeled ligand at 16 concentrations, room temperature; which label was used is not told.

The results in this text go back to article PMC12817906, “SVCV phosphoprotein hijacks phase separation to immobilize the IRF3-TBK1 signaling axis and suppress interferon antiviral immunity” (Journal of Virology, 2025).

Values joined by “and” are separate entries in the source; they are usually repeats but may differ in a detail not shown here. Equal values may be shown once.

Turning to “purified recombinant zebrafish IRF3 (His-tagged) (natural protein)”, the Kd (commonly the free concentration of one partner at which half of the binding sites on the other are occupied at equilibrium, for simple one-to-one binding) in data set [1] was determined as 81.7 µM; in data set [2], 70 µM.

B1: purified recombinant SVCV-P (His-tagged) (natural protein)
chain: MSLHSKLSESLKAYADLDKTVKEIEEQVSSMEEPVPKTVKYVTFEENLSEEEWESDSGDDDEDSIDDSLIPDYLRESSSITVDEDEEDQKEDMEEHLPTVSWEEEPTGIDIGFGPGIVMPSVSNHEGGTYVRYNGLGGVDPNCKDLISKMMRSLIGQIGNKYGYDIDLFDYQGDFLEVFLPHKPSKEDVRPDIRIGKKNEEGTSKQVSKPRGKEKIVLKTGDECGRFPMNKEAKKREPEGLWEVMKVLSVQFDPWKEDEPPLSLTIRDLFISESEFRLHCNHSQTEREMALVGIKLRRLYNKLYQKYRL
notes: phosphoprotein (P) of spring viremia of carp virus; The MST methods say only 'purified SVCV-P'; the His-only construct is surmised (EGFP-GST, EGFP-His and baculovirus EGFP-His forms were also made); also called pET28a-SVCV-P-His; source: E. coli BL21 (DE3), purified (Ni-NTA)
Take B1: the Kd was 8.34 µM and 2.98 µM in data set [3]; 30.4 µM in data set [4].
